± gives the uncertainty stated by the source.

This data set is described as follows: self-splicing fitness, log relative to wild type (ln ratio); higher = more splicing; Tetrahymena group I intron in knt gene, E. coli kanamycin selection, DiMSum; sequences stand for … in CUCUCU…GGAGGGAAAAGUUAUCAGGCAUGCACCUGGUAGCUAGUCUUUAAACCAAUAGAUUGCAUCGGUUUAAAAGGCAAGACCGUCAAAUUGCGGGAAAGGGGUCAACAGCCGUUCAGUACCAAGUCUCAGGGGAAACUUUGAGAUGGCCUUGCAAAGGGUAUGGUAAUAAGCUGACGGACAUGGUCCUAACCACGCAGCCAAGUCCUAAGUCAACAGAUCUUCUGUUGAUAUGGAUGCAGUUCACAGACUAAAUGUCGGUCGGGGAAGAUGUAUUCUUCUCAUAAGAUAUAGUCGGACCUCUCCUUAAUGGGAGCUAGCGGAUGAAGUGAUGCAACACUGGAGCCGCUGGGAACUAAUUUGUAUGCGAAAGUAUAUUGAUUAGUUUUGGAGUACUCGUGGUCG
The method in brief:
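A randomised library covering all eight P1ex-region intron nucleotides was built with the intron in the knt kanamycin-resistance gene on pET-22b(+) and held in E. coli BL21(DE3). Cells were grown overnight at 37°C or 30°C on LB agar, with or without 25 μg/mL kanamycin, plus 100 μg/mL carbenicillin, 50 μM IPTG and 0.2% rhamnose, and pooled colonies were amplicon-sequenced on an Illumina HiSeq 2500. DiMSum fitness is the error-weighted combination of wild-type-normalised replicate fold changes, kanamycin versus none.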

Turning to GUCCAGCAAUAUUACGCGGA, the “self-splicing fitness (ln)” value runs as follows: (30 °C) -3.96 ± 0.25; (37 °C) -4.4 ± 0.46.
The corresponding values for GCGAAGCAAUAUUACGUUGU are -3.58 ± 0.21 and -2.58 ± 0.18.
Turning to UUAAAGCAAUAUUACGCCGA, the “self-splicing fitness (ln)” value is -0.193 ± 0.12 (30 °C) and 0.491 ± 0.15 (37 °C).
The corresponding values for GCGAAGCAAUAUUACGGCAA are -0.999 ± 0.16 and -0.804 ± 0.16.
For the sequence CACUAGCAAUAUUACGAGAU, the “self-splicing fitness (ln)” value reads like this: (30 °C) -3.87 ± 0.39; (37 °C) -2.97 ± 0.2.
The matching figures for CUACAGCAAUAUUACGUCAA: -3.91 ± 0.19 and -1.82 ± 0.14.
For AUAUAGCAAUAUUACGGUCU, the “self-splicing fitness (ln)” value is -0.211 ± 0.076 (30 °C) and 0.0619 ± 0.1 (37 °C).
Regarding UGCUAGCAAUAUUACGUAGA, the “self-splicing fitness (ln)” value was -2.3 ± 0.18 (30 °C) and -0.929 ± 0.17 (37 °C).
Regarding UCGUAGCAAUAUUACGCUCA, the “self-splicing fitness (ln)” value (30 °C) is -0.522 ± 0.13 and the “self-splicing fitness (ln)” value (37 °C) was -0.556 ± 0.16.
For GUAAAGCAAUAUUACGGACC, the “self-splicing fitness (ln)” value (30 °C) is -1.15 ± 0.13 and the “self-splicing fitness (ln)” value (37 °C) was -0.652 ± 0.24.
For GGCUAGCAAUAUUACGAACU, the “self-splicing fitness (ln)” value (30 °C) is -0.723 ± 0.25 and the “self-splicing fitness (ln)” value (37 °C) is 0.433 ± 0.25.
Take UCUGAGCAAUAUUACGUCGC: the “self-splicing fitness (ln)” value reads like this: (30 °C) -4.03 ± 0.37; (37 °C) -2.54 ± 0.36.
Consider CCGGAGCAAUAUUACGUAAG, for which the “self-splicing fitness (ln)” value by setting is: (30 °C) -0.00724 ± 0.087; (37 °C) 0.176 ± 0.13.
On to UCUCAGCAAUAUUACGCUAA, for which the “self-splicing fitness (ln)” value (30 °C) is -3.89 ± 0.33 and the “self-splicing fitness (ln)” value (37 °C) is -2.23 ± 0.25.
On to CUCUAGCAAUAUUACGGGAG, for which the “self-splicing fitness (ln)” value by setting is: (30 °C) -3.78 ± 0.19; (37 °C) -2.26 ± 0.19.
Take GAGUAGCAAUAUUACGAAAG: where the note is “37 °C”, the “self-splicing fitness (ln)” value was -1.2 ± 0.3.
Regarding CGAAAGCAAUAUUACGUUGA, the “self-splicing fitness (ln)” value runs as follows: (30 °C) -3.72 ± 0.18; (37 °C) -2.28 ± 0.16.
Consider GAAGAGCAAUAUUACGGCAG, for which the “self-splicing fitness (ln)” value is, setting by setting: (30 °C) -4.54 ± 0.36; (37 °C) -1.97 ± 0.23.
In the case of CGACAGCAAUAUUACGUGAG, the “self-splicing fitness (ln)” value (30 °C) was -0.627 ± 0.052 and the “self-splicing fitness (ln)” value (37 °C) was -0.333 ± 0.074.
Turning to AGAUAGCAAUAUUACGUCUG, the “self-splicing fitness (ln)” value is, setting by setting: (30 °C) -0.398 ± 0.062; (37 °C) -0.143 ± 0.076.
Turning to GCUUAGCAAUAUUACGCAGG, the “self-splicing fitness (ln)” value (30 °C) is -1.27 ± 0.19 and the “self-splicing fitness (ln)” value (37 °C) was -2.97 ± 0.27.
The corresponding values for UAUCAGCAAUAUUACGUGCC are -4.21 ± 0.34 and -1.95 ± 0.16.
With GCCCAGCAAUAUUACGUCUU, the “self-splicing fitness (ln)” value is -0.849 ± 0.061 (30 °C) and -0.668 ± 0.09 (37 °C).
For the sequence AUCCAGCAAUAUUACGCUCC, the “self-splicing fitness (ln)” value runs as follows: (30 °C) -0.802 ± 0.12; (37 °C) 0.304 ± 0.2.
The matching figures for GUGUAGCAAUAUUACGUCCA: -1.74 ± 0.38 and -0.639 ± 0.39.
On to UGGAAGCAAUAUUACGGUAU, for which the “self-splicing fitness (ln)” value (30 °C) is -3.09 ± 0.38.
As for CCCAAGCAAUAUUACGACAG, the “self-splicing fitness (ln)” value reads like this: (30 °C) -4.22 ± 0.15; (37 °C) -2.39 ± 0.12.
As to GGUUAGCAAUAUUACGACGA, the “self-splicing fitness (ln)” value is, setting by setting: (30 °C) -1.15 ± 0.18; (37 °C) 0.349 ± 0.21.
Turning to AACUAGCAAUAUUACGCAUG, the “self-splicing fitness (ln)” value is -1.25 ± 0.083 (30 °C) and -0.11 ± 0.086 (37 °C).
Take GUGAAGCAAUAUUACGCACG: the “self-splicing fitness (ln)” value was -0.996 ± 0.12 (30 °C) and -0.777 ± 0.13 (37 °C).
For the sequence ACCAAGCAAUAUUACGCCGU, the “self-splicing fitness (ln)” value is, setting by setting: (30 °C) -3.18 ± 0.17; (37 °C) -1.66 ± 0.15.
Regarding AUUGAGCAAUAUUACGGUGA, the “self-splicing fitness (ln)” value is -2.89 ± 0.28 (30 °C) and -1.48 ± 0.22 (37 °C).
On to AAUGAGCAAUAUUACGAAAU, for which the “self-splicing fitness (ln)” value by setting is: (30 °C) -2.14 ± 0.28; (37 °C) -1.36 ± 0.34.
In the case of ACGGAGCAAUAUUACGCUGA, the “self-splicing fitness (ln)” value runs as follows: (30 °C) -1.48 ± 0.17; (37 °C) -1.9 ± 0.21.
The corresponding values for AUUCAGCAAUAUUACGGACA are -0.904 ± 0.078 and -0.744 ± 0.095.
UCUUAGCAAUAUUACGUAGC: the “self-splicing fitness (ln)” value reads like this: (30 °C) -3.98 ± 0.46; (37 °C) -1.98 ± 0.21.
As to CUGUAGCAAUAUUACGUGUG, the “self-splicing fitness (ln)” value is, setting by setting: (30 °C) -1.79 ± 0.058; (37 °C) -0.37 ± 0.071.
Take UAGAAGCAAUAUUACGUUUU: the “self-splicing fitness (ln)” value (30 °C) is -3.58 ± 0.17 and the “self-splicing fitness (ln)” value (37 °C) is -2.85 ± 0.18.
Turning to UUCCAGCAAUAUUACGCACA, the “self-splicing fitness (ln)” value reads like this: (30 °C) -0.0937 ± 0.12; (37 °C) -0.0969 ± 0.13.
Take CACAAGCAAUAUUACGUGUA: the “self-splicing fitness (ln)” value runs as follows: (30 °C) -3.53 ± 0.13; (37 °C) -1.78 ± 0.093.
As to GUGGAGCAAUAUUACGUGAA, the “self-splicing fitness (ln)” value (37 °C) is -0.49 ± 0.28.
UUGAAGCAAUAUUACGGCGC: the “self-splicing fitness (ln)” value reads like this: (30 °C) -2.04 ± 0.17; (37 °C) -0.68 ± 0.19.
The corresponding values for CGCCAGCAAUAUUACGGAGU are -3.79 ± 0.12 and -2.7 ± 0.13.
As to GUAGAGCAAUAUUACGCCUA, the “self-splicing fitness (ln)” value by setting is: (30 °C) -1.39 ± 0.26; (37 °C) -1.18 ± 0.24.
As for CAUUAGCAAUAUUACGCAAA, under “37 °C”, the “self-splicing fitness (ln)” value was -2.25 ± 0.32.
UUGUAGCAAUAUUACGGAUA: the “self-splicing fitness (ln)” value by setting is: (30 °C) -2.68 ± 0.24; (37 °C) -1.42 ± 0.23.
The corresponding values for AGUCAGCAAUAUUACGGCGC are -0.611 ± 0.13 and -0.0744 ± 0.18.
With UUACAGCAAUAUUACGAACC, for the setting “30 °C”, the “self-splicing fitness (ln)” value is -1.61 ± 0.4.
In the case of GAUAAGCAAUAUUACGCAUC, the “self-splicing fitness (ln)” value was -3.06 ± 0.23 (30 °C) and -1.21 ± 0.35 (37 °C).
Consider UAUAAGCAAUAUUACGUUAA, for which the “self-splicing fitness (ln)” value (30 °C) is -2.59 ± 0.15 and the “self-splicing fitness (ln)” value (37 °C) is -1.5 ± 0.14.
Consider CUGAAGCAAUAUUACGACGG, for which the “self-splicing fitness (ln)” value runs as follows: (30 °C) -0.289 ± 0.15; (37 °C) -0.879 ± 0.14.
As to UGUGAGCAAUAUUACGCUAC, where the note is “30 °C”, the “self-splicing fitness (ln)” value was -3 ± 0.32.
As to UCCCAGCAAUAUUACGGUUA, the “self-splicing fitness (ln)” value (30 °C) was -0.244 ± 0.071 and the “self-splicing fitness (ln)” value (37 °C) amounted to 0.0867 ± 0.077.
On to CGAUAGCAAUAUUACGUUUC, for which the “self-splicing fitness (ln)” value (37 °C) is -2.12 ± 0.15.
In the case of CUUCAGCAAUAUUACGUGAU, the “self-splicing fitness (ln)” value by setting is: (30 °C) -3.65 ± 0.12; (37 °C) -2.55 ± 0.12.
As for UCGCAGCAAUAUUACGGCUG, the “self-splicing fitness (ln)” value by setting is: (30 °C) -3.46 ± 0.24; (37 °C) -2.45 ± 0.32.
With UUAGAGCAAUAUUACGGAUC, the “self-splicing fitness (ln)” value (37 °C) is -1.56 ± 0.4.
As to AAUUAGCAAUAUUACGCCCC, the “self-splicing fitness (ln)” value by setting is: (30 °C) -0.573 ± 0.33; (37 °C) -0.798 ± 0.49.
As to ACGAAGCAAUAUUACGAAAC, the “self-splicing fitness (ln)” value (30 °C) was -2.87 ± 0.23.
Take AUGCAGCAAUAUUACGUGAG: the “self-splicing fitness (ln)” value reads like this: (30 °C) -1.36 ± 0.049; (37 °C) -1.06 ± 0.073.
As for AGUCAGCAAUAUUACGGGGC, for the setting “37 °C”, the “self-splicing fitness (ln)” value was -2.31 ± 0.45.
For CUGGAGCAAUAUUACGAUCG, the “self-splicing fitness (ln)” value by setting is: (30 °C) -1.7 ± 0.14; (37 °C) 0.264 ± 0.21.
As to CUGUAGCAAUAUUACGCUCA, the “self-splicing fitness (ln)” value runs as follows: (30 °C) -2.22 ± 0.22; (37 °C) -1.95 ± 0.23.

Values taken from the supplement of paper PMC7877785.
